The record followed here is the RNAGym collection of RNA variant scans (doi:10.7554/elife.80360).

The chains are these.
B1: HDV Ribozyme (parent)
chain: GGCCGGCAUGGUCCCAGCCUCCUCGCUGGCGCCGGCUGGGCAACAUUCCGAGGGGACCGUCCCCUCGGUAAUGGCGAAUGGGACCCA

The data set covers variants of B1. The data set can be described thus: self-cleavage, relative activity (ratio to wild type); higher = more cleavage; co-transcriptional.
As to GGCCGGCAUGGUCCCAGCCUCCCCGCUGGCGCCGGCUGGGCAACAUUCCGAGGGGACCGUCCCCUCGGUAAUGGCGAGUGGGACCCA, the self-cleavage was found to be 0.739.

For the variant GGCCGGCAUGGUCCCAGCCUUCUCGCUGGCGCCGGCUGGGCAACAUUCCGAGGGGACCGUCCCCUCGGUAAUGCCGAAUGGGACCCA, the self-cleavage was determined as 0.158.

Take GGCCGGCACGGUCCCAGCCUCCUCGCUGGCGCCGGCUGGGCAACAUUCCGAGGGGGCCGUCCCCUCGGUAAUGGCGAAUGGGACCCA: the self-cleavage was 0.935.

For AGCCGUCAUGGUCCCAGCCUCCUCGCUGGCGCCGGCUGGGCAACAUUCCGAGGGGACCGUCCCCUCGGUAAUGGCGAAUGGGACCCA, the self-cleavage came to 0.

With GGCCUGCAUAGUCCCAGCCUCCUCGCUGGCGCCGGCUGGGCAACAUUCCGAGGGGACCGUCCCCUCGGUAAUGGCGAAUGGGACCCA, the self-cleavage turned out to be 0.135.

For GGCCGGCAUGGUCCCUGCCUCCUCGCUGGCGCCGGCUGGGCAACAUUCCGAGGGGACCGUCCCCUCGGUAAUGGCGAACGGGACCCA, the self-cleavage is 0.705.

Take GGCCGGCAUGGUCCCAGCCUCCACGCUGGCGCCGGCUGGGCAACAUUCCGAGGGGACCGUCCCGUCGGUAAUGGCGAAUGGGACCCA: the self-cleavage was 1.03.

On to GGCCGGCAUGGUCCCAGCCUCCUAGCUGGCGCCGGCUGGGCAACAAUCCGAGGGGACCGUCCCCUCGGUAAUGGCGAAUGGGACCCA, for which the self-cleavage turned out to be 0.213.

GGCCGGCAUGGUCCCAGCCUCCUCCCUGGCGCCGGCUGGGCCACAUUCCGAGGGGACCGUCCCCUCGGUAAUGGCGAAUGGGACCCA: the self-cleavage turned out to be 0.128.

With GGCCGGCAUGGUCCCAGCCUCCUCGCUGGCGCCGGCUGGGCAACAGUCCGAGGGGACCGUCCCCUCGGUAGUGGCGAAUGGGACCCA, the self-cleavage is 0.772.

On to GGCCGGCAUGGUCCCAGCCUCCUCGCUGGCGCCGGCUGGGCAACAUUCCGAGGGGACCGUGCCCUCGGUAAUGGCGAAUGGCACCCA, for which the self-cleavage stood at 0.233.

As to GGCCGGCAGGGUCCCAGCCUCCUCGCUGGCGCCGGCUGGGCAACAUUCCGAGGGGACCGUCCCCUCGGUAAUGGCGAAUGGGACCAA, the self-cleavage is 0.959.

With AGCCGGCAUGGUCCCAGCCUCCUCGCUGGCGCCGGCUGGGCAACAUUCCGAGGGGACCGUCCCCUCGGUAAUGGCGAGUGGGACCCA, the self-cleavage is 0.

Consider GGCCGGCAGGGUUCCAGCCUCCUCGCUGGCGCCGGCUGGGCAACAUUCCGAGGGGACCGUCCCCUCGGUAAUGGCGAAUGGGACCCA, for which the self-cleavage came to 1.07.

On to GGCCGGCAUGGUCCCAGCCUCCUCGCUGGCGCCGGCUGGGCAUCAUUCCGAGGGGUCCGUCCCCUCGGUAAUGGCGAAUGGGACCCA, for which the self-cleavage came to 0.475.

On to GGCCGGCAUGGUCCCAGCCUCCUCGCUGGCGCCGGCUGGGCAACAUUCCGAGGGGACCGUCCCCUCGGUAAUGGCGAAUGCUACCCA, for which the self-cleavage was determined as 0.287.

Take GGCCGGCAUGGUCCCAGCCUCCUCGCUGGCGCCGGCUGGGCAACAUUCCGAGGGGACCGUCCCCUCGGUCAUGACGAAUGGGACCCA: the self-cleavage came to 0.308.

Consider GGCCGGCAUGGUCCCAGCCUCCUCGCUGGCGCCGGCUGGGCAACAUUCCGAGGGGACCGUCCCCUCGGUAAUGGUGGAUGGGACCCA, for which the self-cleavage turned out to be 0.0415.

For GGCCGGCAUGGUCCCAGCCUCCUCGCUGGCGGCGGCUGGGCAACAUUCCGAGGGGACCGUCCCCUCGGUUAUGGCGAAUGGGACCCA, the self-cleavage came out at 0.032.

For the variant GGCCGGCAUGGUCCCAGCCUCCUCGCUGGCGCCCGCUGGGCAACAUUCCGAGGGGACCGUCCCCUCGGUAAUGGCGAAUGUGACCCA, the self-cleavage was found to be 0.0639.

With GGCCGGCAUGGUCCCAGCCUCCUCGCUGGCGCUGGCUGGGCAACAUUCCGAGGGGCCCGUCCCCUCGGUAAUGGCGAAUGGGACCCA, the self-cleavage is 0.658.

Regarding GGCCGGCAUGGUCCCAGCCUCCUCGCUGGCGCCGGCCGGGCACCAUUCCGAGGGGACCGUCCCCUCGGUAAUGGCGAAUGGGACCCA, the self-cleavage worked out at 0.308.

With GGCCGGAAUGGUCCCAGCCUCCUCGCUGGCGCCGGCUGGGCAACAUUCCGAGGGGACCGUCCCCUCGGCAAUGGCGAAUGGGACCCA, the self-cleavage is 0.617.

For AGCCGGCAUGGUCCCAGCCUCCUCGCAGGCGCCGGCUGGGCAACAUUCCGAGGGGACCGUCCCCUCGGUAAUGGCGAAUGGGACCCA, the self-cleavage turned out to be 0.

With GGCCGGCAUGGUCCCAGCCUCCUCGCUGGCGCCGGCUGGGCAACAUUCCGAGGGGACCGUUCCAUCGGUAAUGGCGAAUGGGACCCA, the self-cleavage stood at 0.89.

With GGCCGGCAUGGUCCCAGCCUCCUCGCUGGCGCCGGCUGGGCAACAUUCCGACGGGACCGUCCCGUCGGUAAUGGCGAAUGGGACCCA, the self-cleavage was 0.739.

Take GGCCUGCAUGGUCCCAGCCUCCUCGCUGGCGUCGGCUGGGCAACAUUCCGAGGGGACCGUCCCCUCGGUAAUGGCGAAUGGGACCCA: the self-cleavage is 0.104.

On to GUCCGGCAUGGUCCCAGCCUCCUCGCUGGCGCCGGCUGGGCAACAUUCCGAGGGGACCGUCCCCUCGGUAUUGGCGAAUGGGACCCA, for which the self-cleavage turned out to be 0.0287.

Take GGCCGGCAUGGUCCCAGCCUCCUCGCUGGCGCCGGCUGGGCAACAUUCCGAGGGGACCGUCCCCUCGGUUAUGGCGAAUGGGACCCU: the self-cleavage came to 1.2.

Take GGCCGGCAUGGUCCCAGCCUCCUCGCUGGCGCCGGCUGGGCAAAAUACCGAGGGGACCGUCCCCUCGGUAAUGGCGAAUGGGACCCA: the self-cleavage worked out at 0.965.

Take GGCCGGCAUGGUCCCGGCCUCCUCGCUCGCGCCGGCUGGGCAACAUUCCGAGGGGACCGUCCCCUCGGUAAUGGCGAAUGGGACCCA: the self-cleavage was determined as 0.115.

For the variant GGCCGGCAUGGUCCCAGCCUCCUAGCUGGCGCCGGCUGGGCGACAUUCCGAGGGGACCGUCCCCUCGGUAAUGGCGAAUGGGACCCA, the self-cleavage was found to be 0.166.
